Data: publication PMC4462073, “Insights into the evolution of enzyme substrate promiscuity after the discovery of (βα)8 isomerase evolutionary intermediates from a diverse metagenome” (BMC Evolutionary Biology, 2015)

Substrate: NC(=O)c1ncn([C@@H]2O[C@H](COP(=O)(O)O)[C@@H](O)[C@H]2O)c1N=CN[C@@H]1O[C@H](COP(=O)(O)O)[C@@H](O)[C@H]1O
Assay: purified protein
Type: biochemical, Acidimicrobium ferrooxidans

B1: HisA_Afer (Acidimicrobium ferrooxidans DSM 10331) (protein)
chain: MELVVAVDLLDGEAVRLRQGRFDAPRRFGDPRRYVEGALDAGARWFHVVDLDRARTPGDRRNADMVGDLIALVREAGGSVEVGGGVRTARDIAELLETGASRVVLGTALVEETLDELDPEHLVAALDYRRGDEGALEVVVSAWERSGGRRLLEASARLFARGVRTQLLTDVGRDGMASGPDLGTYQGLCEVVPVEVIASGGVASADDLAKLAAIRGARGAVWGAVVGTALLDGSLGFDEALSACRA
notes: codon-optimised synthetic gene in pET22b (NdeI/HindIII), expressed in E. coli, purified
Work on B1 yielded a Km of 1.1 ± 0.2 µM, a kcat of 0.05 ± 0.001 s⁻¹ and a kcat/Km of 45000 M⁻¹ s⁻¹.
